According to the supplement of paper PMC10567573:

B1: SNX8 (parent)
chain: VVLKLFLSFSGSDVQNKLKESAQC
B2: ZBED2 (parent)
chain: RAGHHPNQYATCRLCGRQVSRGPG

Variants of: B1
Assay: protein stability index of a GFP-peptide fusion (GPS, HEK-293T) (PSI 1-6); higher = more stable
Conditions: c terminus: a fixed tail appended
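Further: lentivirally expressed fusions sorted by FACS into six bins by GFP to DsRed ratio, PSI derived from sequencing read proportions per bin multiplied by bin number.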

Variant	protein stability index
K17A	1.72
K17Y	3.54
K17L	3.46
K17W	4.7
K17T	3.29
K17V	2.59
S21M	2.03
S21Y	2.66
S21W	2.66
S21D	1.56
S21N	2.55
S21V	2.46
S21K	2.25
S21F	1.88
L18E	2.26
L18G	4.32
L18F	2.86
L18A	2.7
L18M	4.11
L18W	1.93
L18C	3.48
L18T	2.13
L18Q	4.56
L18R	1.5
L18I	2.58

Variant	protein stability index
K19A	4.92
K19M	2.37
K19F	2.79
K19N	2.76
K19G	3.41
K19I	2.23
K19R	2.25
K19Q	5.1
K19P	3.75
C24F	4.02
C24D	1.9
C24V	2.91
C24P	3.78
C24N	2.99
C24L	5.49
C24W	1.84
C24H	2.17
C24S	3.35
C24Y	3.1
S12H	1.9
S12D	3.29
S12A	2.2
S12Q	3.23
S12K	3.15
S12M	1.72

Variant	protein stability index
S12Y	4.07
S12W	3.39
S12T	3.29
S12N	2.13
S12I	2.62
S12L	1.37
S12P	3.58
G11A	2.33
G11F	3.55
G11L	3.09
G11H	2.62
G11Y	2.42
G11Q	1.77
G11I	2.14
G11R	3.97
G11V	3.28
G11C	1.74
G11S	2.41
G11D	2.11
G11E	3.17
Q15Y	3.96
Q15C	4.88
Q15D	1.8
Q15T	3.35
Q15M	4.13

Variant	protein stability index
Q15N	2.9
Q15F	3.49
F9Y	3.17
F9W	2.48
D13H	3.62
D13F	2.07
D13T	2.28
D13Q	3.33
D13C	2.1
A22D	4.82
A22K	2.18
A22G	3.13
A22F	3.23
A22Y	1.93
A22W	3.87
A22C	2.05
A22M	3.48
A22T	1.76
A22E	3.99
S10D	2.68
S10T	4.41
S10L	2.45
S10Q	2.18
S10Y	2.26
S10A	1.79

Variant	protein stability index
S10M	1.38
S10K	2.22
S10N	2.75
S10W	3.92
S10P	1.78
S10V	3.99
S10R	2.08
E20Q	2.37
E20S	3.97
E20N	3.6
E20L	1.89
E20C	3.61
E20F	3.18
E20M	2.13
E20Y	3.73
E20A	2.89
E20D	3.55
V14Y	2.62
V14N	1.99
V14A	2.43
V14T	2.53
V14S	4.53
V14K	1.82
V14H	1.59
V14D	2.3

Variant	protein stability index
V14E	1.91
N16R	2.84
N16I	2.64
N16K	2.2
N16W	3.64
N16A	2.02
N16G	1.35
N16F	2.04
N16Q	4.03
N16H	1.75
Q23A	3.04
Q23C	3.1
Q23T	2.48
Q23F	1.71
Q23L	3.31
Q23S	1.46
Q23R	2.8
Q23Y	2.52
Q23I	3.23
Q23K	2.59
Q23D	2.27

Variants of: B2
Assay: as above
Conditions: c terminus: a fixed tail appended

Variant	protein stability index
A2H	1.78
A2E	2.33
A2I	2.15
A2D	2.08
A2G	2.1
A2F	2.36
A2K	1.54
R1S	1.86
R1L	1.78
R1C	3.55
R1H	2.13
R1T	2.07
R1V	1.33
R1P	1.04
R1N	2.85
R1E	2.53
R1I	2.13
R1M	1.79
R1D	2.57
R1Q	1.5
R1K	1.68
